Results reported in publication PMC11889601, “The structural integrity of human TFF1 under reducing conditions” (Redox Biology, 2025).
Ends that are not written are not given here.

B1: TFF2: trefoil factor family secretory peptide 2 (protein, UniProt Q03403 24-129, looked up)
Trefoil factor 2: EKPSPCQCSRLSPHNRTNCGFPGITSDQCFDNGCCFDSSVTGVPWCFHPLPKQESDQCVMEVSDRRNCGYPGISPEECASRKCCFSNFIFEVPWCFFPKSVEDCHY

Experiments:
[1] = monomer and homodimer TFF3 domains; reduced glutathione 10 equivalents, 100 μM, pH 7; ref [22]; cited from earlier work
From the text: (§1) Many secretory proteins contain disulfide bonds, with most formed during folding in the endoplasmic reticulum. The trefoil factor family (TFF) is a highly relevant example of such secretory peptides in humans, with three characteristic peptides (TFF1, TFF2, TFF3) produced by mucous epithelia. They are most abundantly secreted throughout different compartments of the gastrointestinal tract, where they have important functions in protecting the epithelium barrier and maintaining mucosal epithelial homeostasis. Each member of the family has at least one highly conserved TF ...

[2] = system: gastrointestinal proteases; conditions: ref [17]-[21]; cited from earlier work
From the text: as §1

[3] = Reductive stability of disulfide bonds: TCEP reduction, IAM alkylation, LC-MS; format: physicochemical; conditions: chemical stability to reduction, 30 min, room temperature (25 °C), then IAM 100 eq/Cys 5 min, TFA quench; for Reduction and alkylation of disulfide bonds with 5 equivalents of TCEP: peptide 150 μM in 100 mM tris.HCl pH 7.4, 5 molar equivalents TCEP per peptide; for Reduction and alkylation of disulfide bonds with 15 equivalents of TCEP: peptide 150 μM in 100 mM tris.HCl pH 7.4, 15 molar equivalents TCEP per peptide; for Reduction and alkylation of disulfide bonds with 150 equivalents of TCEP: peptide 150 μM in 100 mM tris.HCl pH 7.4, 150 molar equivalents TCEP per peptide
Method: Peptides were purified by preparative RP-HPLC using a C5 column (Phenomenex Luna; 10 μm, 21.2 mm ID × 250 mm; flow rate 20 mL/min) on a Shimadzu LC-20A system running a linear gradient of solvents A (0.1 % TFA (aq) and B (90 % acetonitrile (aq)/0.1 % TFA). Fractions were analyzed by liquid chromatography-mass spectrometry (LC-MS), and those containing the desired peptide and >95 % purity were pooled and lyophilized. LC-MS analyses were performed on a C18 column (Agilent Eclipse Plus; […], 2.1 mm ID x 50 mm; flow rate 0.25 mL/min), using a QSTAR Elite electrospray ionization quadrupole time-of-flight (ESI QqTOF) mass spectrometer (SCIEX) linked to an upstream Shimadzu LC-20A HPLC system. HPLC solvents were the same as described previously, substituting formic acid for TFA. Peptides were separated on a gradient of 2–60 % B over 10 min and analyzed over a mass range of 200–2000 amu.
Peptides (TFF1, linaclotide, or BPTI) were dissolved to a concentration of 150 μM in 100 mM tris.HCl, pH 7.4. TCEP and IAM were prepared as separate 0.5 M solutions in 100 mM tris.HCl and the pH of all solutions were adjusted with concentrated KOH to pH 7.4. 25 μL of peptide (3.75 nmol) were treated with 0.5 M TCEP (0–150 molar equivalents per peptide). The samples were incubated at room temperature (25 °C) for 30 min, whereby they were treated with 5 μL (2.5 μmol; 100 eq/Cys) IAM for 5 min, followed by quenching with 5 μL TFA to reduce the pH to 2–3. Samples were then analyzed by LC-MS.

Molecule	Persistence of disulfide bonds in the presence of reduced glutathione [1]	Resistance of the TFF domain to gastrointestinal proteases [2]	Reduction and alkylation of disulfide bonds with 5 equivalents of TCEP [3]	Reduction and alkylation of disulfide bonds with 15 equivalents of TCEP [3]	Reduction and alkylation of disulfide bonds with 150 equivalents of TCEP [3]
TFF3: trefoil factor family secretory peptide 3, with TFF domain (EEYVGLSANQCAVPAKDRVDCGYPHVTPKECNNRGCCFDSRIPGVPWCFKPLQEAECTF; ends and bridges not checked; also: three intramolecular disulfides in TFF domain, pairing not given here; UniProt Q07654 22-80, looked up)	no disulfide bond reduction or scrambling detected	resistance			
bovine pancreatic trypsin inhibitor [BPTI]			complete reduction and alkylation of a single disulfide bond	no further reduction	No further reduction
linaclotide			partial reduction and alkylation of a single disulfide bond	fully reduced and alkylated	fully reduced and alkylated
B1		resistance			
